Test results published in paper PMC5491494, “Functional and dynamic polymerization of the ALS-linked protein TDP-43 antagonizes its pathologic aggregation” (Nature Communications, 2017).

Molecular target: the molecule itself
Assay: cross-linking; in situ 1 mM DSG on minced human brain tissue (cerebellum, motor cortex) or mouse organotypic brain slices (control or 0.25 mM arsenite for 2 h), 37 °C, 30 min, quenched with 20 mM Tris; nucleo-cytoplasmic fractionation; immunoblot

B1: wild-type superoxide dismutase 1 (SOD1), endogenous mouse (enzyme)
chain: not shown
notes: superoxide dismutase 1, mouse, endogenous in brain slices; source: endogenous, mouse brain slices
  stoichiometry N: 2
